Reference: paper PMC10968383 (Bioengineering, 2024)

Columns and labels:
[1] = biological target: T1, full-length PrPc displayed on 293T cells (293T-PrPc) (Homo sapiens (Human)., UniProt P04156)
PrPc-35aa = PrPc-35aa (Homo sapiens (Human).); assay: BLI; conditions: both partners purified
[2] = biological target: T1, full-length PrPc displayed on 293T …; assay: Western blotting; conditions: one partner purified

Binder	binding result [1]	Kd (PrPc-35aa) [nM]	further results
HAb 6b (antibody, V domains shown) VH: EVQLVQSGAEVKKPGATVKMSCKASGYTFTDYYMKWVKQAPGKGLEWIGDINPNNGDTFYNEKFQGRATLTVDKSTNTAYMELSSLRSEDTAVYYCAKPGRTYWGQGTLVTVS VL: DIVLTQSPDSLAVSLGERVTMSCKSSQSLLDSGNQKNYLVWYQQKPGQPPKLLIYGASTRESGVPDRFSGSGSGTDFTLTISSVQAEDVAVYYCQNDHSYPLTFGAGTKLELK	binds		
HAb 6 (antibody, V domains shown, IgG1; also called humanized antibody HAb 6; wild-type antibody; source: 293F cells, purified with protein A column) VH: EVQLVQSGAEVKKPGATVKMSCKASGYTFTDYYMKWVKQAPGKSLEWIGDINPNNGDTFYNQKFQGRATLTVDKSSNTAYMELSSLRSEDTAVYYCAKPGRTYWGQGTLVTVS VL: DIVLTQSPDSLAVSLGERVTMSCKSSQSLLDSGNQKNYLVWYQQKPGQPPKLLIYGASTRESGVPDRFTGSGSGTDFTLTISSVQAEDVAVYYCQNDHSYPLTFGAGTKLELK		2.92	
Clone 6 (antibody, V domains shown, also called murine anti-PrPc antibody Clone 6; full-length Clone 6 antibody; source: 293F cells, purified with protein A column) VH: EVQLQQSGPELVKPGASVKMSCKASGYTFTDYYMKWVKQSHGKSLEWIGDINPNNGDTFYNQKFKGKATLTVDKSSNTAYMQLNSLTSEDSAVYYCAKPGRTYWGQGTLVTVS VL: DIVLTQSPSSLSVSAGEKVTMSCKSSQSLLDSGNQKNYLVWYQQKPGQPPKLLIYGASTRESGVPDRFTGSGSGTDFTLTISSVQPEDLAVYYCQNDHSYPLTFGAGTKLELK		0.314	
4AA-m (antibody, V domains shown, also called recombinant 4AA-m; source: 293F cells, purified with protein A column (said of the antibodies in general)) VH: EVQLVQSGAEVKKPGDTVKMSCKASGYTFTDYYMKWVKQAPGKAPGKSLEWIGDINPNNGDTFYNQKFQGRATLTVDKSSNTAYMELSSLRSEDTAVYYCVKPGRTYWGQGTLVTVS VL: DIVLTQSPDSLAVSLGERVTMSCKSSQSLLDSGNQKNYLVWYQQKPGQPPKLLIYGASTRESGVPDRFTGSGSGTDFTLTISSVQAEDVAVYYCQNDHSYPLTFGAGTKLELK			Western blot signal on the 5 μg lysate, fold of that with 3F4 [2]: 3 fold; Western blot signal on the 5 μg lysate, fold of that with 8H4 [2]: 9 fold
4AA (antibody, V domains shown, IgG1) VH: EVQLVQSGAEVKKPGDTVKMSCKASGYTFTDYYMKWVKQAPGKAPGKSLEWIGDINPNNGDTFYNQKFQGRATLTVDKSSNTAYMELSSLRSEDTAVYYCVKPGRTYWGQGTLVTVS VL: DIVLTQSPDSLAVSLGERVTMSCKSSQSLLDSGNQKNYLVWYQQKPGQPPKLLIYGASTRESGVPDRFTGSGSGTDFTLTISSVQAEDVAVYYCQNDHSYPLTFGAGTKLELK		0.281	
HAb 6c (antibody, V domains shown) VH: EVQLVQSGAEVKKPGATVKISCKASGYTFTDYYMKWVQQAPGKGLEWMGLVNPNNGDTFYNEKFQGRVTITVDKSTNTAYMELSSLRSEDTAVYYCATPGRTYWGQGTLVTVS VL: DIVLTQSPDSLAVSLGERATISCKSSQSLLDSGNQKNYLVWYQQKPGQPPKLLIYGASTRESGVPDRFSGSGSGTDFTLTISSLQAEDVAVYYCQNDHSYPLTFGAGTKLELK	binds		
